What was measured:
[1] = Tissue pharmacokinetics of released TQ and its metabolites in liver, plasma and urine (LC-MS/MS); assay type: in vivo, BALB/c mice; details: mouse, in vivo
P. cynomolgi hypnozoites = experiment: P. cynomolgi anti-hypnozoite assay in primary NHP hepatocytes (radical cure mode); assay type: cell-based; details: treatment days 4 to 7 after infection, readout day 8
Procedure: (§1) Cryopreserved primary cynomolgus monkey hepatocytes (lot STX) and hepatocyte culture medium (HCM) (InVitroGro CP medium) were obtained from BioIVT Inc. (Baltimore, MD, USA) and thawed following the manufacturer’s recommendations. Hepatocytes were seeded in 384-well collagen-coated plates and used for experiments within 2 days after seeding as previously described ([52]). Infectious sporozoites were obtained from Anopheles dirus mosquitoes infected with P. cynomolgi B strain and were used to infect the plated primary NHP hepatocytes 2 days after seeding ([52], [102]). HCM was changed the day after infection and every other day thereafter until drug treatment. […]
(§2) Imaging and image analysis of assay plates were completed using an Operetta CLS high-content imaging system and Harmony 4.9 software (PerkinElmer, Waltham, MA, USA). […] Using similar methodology described previously, parasites were counted with the TRITC channel and were identified by area, mean intensity, maximum intensity, and cell roundness parasites ([50], [99]–[102]). […] Percent inhibition (PI) and toxicity values were calculated relative to in-plate negative controls for parasites and hepatocytes, respectively, using GraphPad Prism software (GraphPad Software Inc., USA, Windows version 9.5.1) using the average of experimental and biological replicates. […]

primary NHP hepatocytes = experiment: Hepatocyte toxicity in the P. cynomolgi anti-hypnozoite assay; assay type: cell-based, cynomolgus monkey; details: treatment days 4 to 7 after infection, readout day 8
Procedure: as §1, §2

## p(GalNAc-MA-co-SVCTQ-MA) [pSVCTQ]
[1]; iv, 25 mg/kg
  AUC, liver: 2550 μg/g liver*hour
  AUC, plasma: 15.53 μg/ml plasma* hour
  Cmax, liver: 57 μg/g liver
  Cmax, plasma: 0.20 μg/ml plasma
  Liver:plasma AUC ratio: 164
  Tmax, liver: 8 h
  Tmax, plasma: 2 h
[1]; sc
  OQTQ metabolite in urine: high level
  Reduction of the Cmax of TQ in blood: over 75%
  Reduction of the blood AUC over 14 days: more than 50%
[1]; sc, 10 mg/kg
  AUC, liver: 2422 μg/g liver*hour
  AUC, plasma: 9.617 μg/ml plasma* hour
  CTQ metabolite in plasma: absence
  Cmax, liver: 25 μg/g liver
  Cmax, plasma: 0.10 μg/ml plasma
  Liver:plasma AUC ratio: 252
  OQTQ metabolite in plasma: low
  Tmax, liver: 8 h
  Tmax, plasma: 24 h
P. cynomolgi hypnozoites
  IC50: 25.6 µM
Primary NHP hepatocytes
  IC50: > 161 µM

Reference: paper PMC11029812, “Liver-targeted polymeric prodrugs delivered subcutaneously improve tafenoquine therapeutic window for malaria radical cure” (Science Advances, 2024)
